Biological target: Omicron BA.1.1 spike trimer (includes the R346K mutation) (SARS-CoV-2) (UniProt P0DTC2)
Test: Luminex spike-ACE2 surrogate neutralization assay

P5C3 LS monoclonal antibody showed a percent inhibition of ACE2 binding at 20 µg ml^−1 of 100%.
